# According to paper PMC3474761:
# System: Hfq (His-tagged) (Burkholderia cenocepacia J2315?)
# Experiment: EMSA
# Settings: RNA binding buffer (composition in cited ref. 21), 25 ul, 30 min at 25 C, salt and pH not stated
Substance,Kd (excess unlabelled yeast tRNA) [nM],"Kd (apparent Kd, 2.5 nM RNA, 0-10 nM Hfq6, excess yeast tRNA, excess unlabelled yeast …) [nM]"
hfq2 5'-UTR (216 nt),9.5,
h2cR sRNA (136 nt),,1.5
